We go through 2 molecules from PMC7570948 (2020).

For experiment [1], the target named is T1, CCR7-eGFP stably expressed on 300-19 pre-B cells (human, UniProt P32248 25-378).
T1 chain: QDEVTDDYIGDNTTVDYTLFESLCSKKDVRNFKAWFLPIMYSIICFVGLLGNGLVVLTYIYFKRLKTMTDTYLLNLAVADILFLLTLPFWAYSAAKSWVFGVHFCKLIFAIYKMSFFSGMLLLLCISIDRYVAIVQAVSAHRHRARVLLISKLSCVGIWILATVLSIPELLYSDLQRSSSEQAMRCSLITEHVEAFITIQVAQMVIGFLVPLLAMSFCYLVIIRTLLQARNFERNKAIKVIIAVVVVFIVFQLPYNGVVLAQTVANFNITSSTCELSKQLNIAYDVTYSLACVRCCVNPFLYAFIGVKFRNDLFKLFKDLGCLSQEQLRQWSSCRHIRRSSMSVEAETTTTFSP
As to the kind of experiment: FACS; 37°C, competition with 25 nM CCL19-Dy649P1 (printed as EC50).

Experiment [2] deals with T1, CCR7-eGFP stably expressed on 300-19 …. Kind of experiment: FACS; 10°C, competition with 25 nM CCL19-Dy649P1 (printed as EC50).
For experiment [3] the target is unchanged. Kind of experiment: FACS; 37°C, competition with 25 nM CCL19-Dy649P1 (printed as EC50; partial inhibition).

B1: CCL19 (synthetic, unlabeled human CCL19) (ligand)
chain: GTNDAEDCCLSVTQKPIPGYIVRNFHYLLIKDGCRVPAVVFTTLRGRQLCAPPDQPWVERIIQRLQRTSAKMKRRSS
The term IC50 denotes the concentration at which inhibition is half-maximal. Regarding B1, the 50% inhibitory concentration (IC50) amounted to 14.1 nM in experiment [1] and 10.1 nM in experiment [2].

B2: CXCL14 (synthetic, unlabeled human CXCL14) (ligand)
chain: SKCKCSRKGPKIRYSDVKKLEMKPKYPHCEEKMVIITTKSVSRYRGQEHCLHPKLQSTKRFIKWYNAWNEKRRVYEE
Molecule B2 showed an IC50 in experiment [3] of 9.2 nM.
